The text below walks through data of the RNAGym collection of RNA variant scans (doi:10.1093/molbev/msab373).

B1: Azoarcus group I ribozyme (parent)
chain: GUGCCUUGCGCCGGGAAACCACGCAAGGGAUGGUGUCAAAUUCGGCGAAACCUAAGCGCCCGCCCGGGCGUAUGGCAACGCCGAGCCAAGCUUCGGCGCCUGCGCCGAUGAAGGUGUAGAGACUAGACGGCACCCACCUAAGGCAAACGCUAUGGUGAAGGCAUAGUCCAGGGAGUGGCGAAAGUCACACAAACCGG

Variants of B1 are the subject of this data set. Description: reverse-splicing fitness (ratio to wild type); higher = more active; in vitro selection; Mg2+ level not given. The procedure, abridged:
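An in vitro group I ribozyme library with randomized positions was T7-transcribed and gel-purified. In triplicate, 10 pmol RNA in EPPS pH 7.5 was reacted with 50 pmoles of a 30-nt RNA substrate for 1 h at 37 °C across several added MgCl2 levels (1–48 mM), then stopped with EDTA. Products were reverse transcribed from a substrate-complementary primer, PCR-amplified and sequenced (HiSeq 4000). Fitness is a variant's read proportion after selection over that before, normalised to wild type.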
As to C82A A111U A145C C150A U176C, the reverse-splicing fitness was found to be 0.0157.

For the variant C82U A120C A145C, the reverse-splicing fitness stood at 0.149.

For C82G A111U A120G A145U C150G C169G U176G, the reverse-splicing fitness stood at 0.00425.

On to C82G A145U C150G C169U, for which the reverse-splicing fitness turned out to be 0.0092.

Consider C82G A111G A145U C150A C169U U176C, for which the reverse-splicing fitness came out at 0.0148.

For the variant C82G A111U A120G A145U C169U U176A, the reverse-splicing fitness came out at 0.0185.

Take C82G A111C A120G C150G C169G U176C: the reverse-splicing fitness was 0.00508.

On to C82G A120U A145C C150G U176A, for which the reverse-splicing fitness was 0.00741.

As to A111U A120U C169A U176C, the reverse-splicing fitness turned out to be 0.00373.

Turning to C82A A111C C150A, the reverse-splicing fitness came out at 0.0239.

With A145C C169G U176G, the reverse-splicing fitness came out at 0.00875.

In the case of A145C C150A U176C, the reverse-splicing fitness came to 0.206.

As to C82G A145G C150A U176G, the reverse-splicing fitness is 0.0244.

In the case of C82A A111C A120C A145U C169G U176C, the reverse-splicing fitness was 0.0178.

In the case of A111G A145U C169U U176C, the reverse-splicing fitness worked out at 0.0656.

Regarding A111U A120G C150G U176C, the reverse-splicing fitness was 0.0112.

With C82U A111G A145G C169A U176A, the reverse-splicing fitness was determined as 0.0185.

Consider A120U C150U U176A, for which the reverse-splicing fitness was found to be 0.62.

Regarding A120U C150U U176C, the reverse-splicing fitness is 0.556.

Regarding C82A A111G A120G A145U C150U C169U U176C, the reverse-splicing fitness was determined as 0.0152.

For C82A A111C A120U A145C C169A U176G, the reverse-splicing fitness stood at 0.00214.

With A111U A120G C169U U176G, the reverse-splicing fitness came out at 0.00807.

Consider C82A A111G A145G C150G C169A U176G, for which the reverse-splicing fitness was found to be 0.00909.

Regarding C82A A111C A120G C150A C169A, the reverse-splicing fitness was 0.00919.

C82A A111U A120G C150A C169A U176G: the reverse-splicing fitness is 0.00665.

Turning to C82A A111C A145U C169U U176G, the reverse-splicing fitness is 0.00718.

For C82G A111C A120C A145G C150G C169A U176A, the reverse-splicing fitness is 0.0142.

As for C82G A111C A120C A145C C150U C169U U176G, the reverse-splicing fitness turned out to be 0.0064.

As to C82U A111G A120U A145G C150G U176A, the reverse-splicing fitness was determined as 0.00494.

Turning to C82U A111C A145U C169G, the reverse-splicing fitness was found to be 0.0103.

For A120C C150U C169A U176G, the reverse-splicing fitness was 0.00428.

Turning to C82A A111C A120G A145C U176C, the reverse-splicing fitness worked out at 0.0134.

With A111U A120C C150A C169G U176C, the reverse-splicing fitness is 0.0197.

C82A A111G A120G A145G C150A C169A U176A: the reverse-splicing fitness is 0.0205.

Take C150U C169G U176C: the reverse-splicing fitness worked out at 0.0925.

Consider A111G A120U A145U C150G C169U U176C, for which the reverse-splicing fitness was determined as 0.00372.

For A111U A120U A145U C150G U176G, the reverse-splicing fitness was determined as 0.0043.

Turning to C82G A111U A145G C150G C169G U176C, the reverse-splicing fitness was 0.0129.

On to A111G A145U C150U C169A U176A, for which the reverse-splicing fitness worked out at 0.0142.

Turning to A111G A120U A145G C169A, the reverse-splicing fitness was 0.00517.

With C82A A111U A120C A145C C150U C169G, the reverse-splicing fitness worked out at 0.00912.

With C82A A111U A120C A145C C150U C169U, the reverse-splicing fitness amounted to 0.0105.

As for C82G A111C A120G U176G, the reverse-splicing fitness was found to be 0.00753.

As to C82A A111U A120C A145U C150U, the reverse-splicing fitness was 0.0216.

With C82A A111G A120G A145U C150G U176C, the reverse-splicing fitness worked out at 0.00837.

With C82G A111C A120U A145C C150A C169U U176A, the reverse-splicing fitness was found to be 0.00291.

Regarding C82A A120G A145G C150G U176C, the reverse-splicing fitness amounted to 0.011.

Take C82G A111U A120G A145U: the reverse-splicing fitness came to 0.0161.

Regarding A120C C169A U176A, the reverse-splicing fitness was determined as 0.0173.

On to A111C A145G C150U C169U U176C, for which the reverse-splicing fitness worked out at 0.0254.

In the case of C82U A111G A120C A145U C169A U176C, the reverse-splicing fitness came out at 0.00627.

C82U A111G A120C A145U C150U C169A U176C: the reverse-splicing fitness was found to be 0.00827.

On to C82A A111U A120U A145G C150U C169G, for which the reverse-splicing fitness turned out to be 0.00728.

As to A120C A145G C150G U176A, the reverse-splicing fitness was found to be 0.0905.

For C82U A111C A120G A145C C150U C169U U176G, the reverse-splicing fitness was 0.00401.

Consider C82U A145U C150U C169A U176C, for which the reverse-splicing fitness amounted to 0.00789.

In the case of A111C A120U A145G C150U C169U U176C, the reverse-splicing fitness was found to be 0.0178.

For the variant C82A A111U A120U A145C C150U C169A U176A, the reverse-splicing fitness came out at 0.00281.

Turning to C82A A120U A145U C150G C169A, the reverse-splicing fitness was 0.00305.

As for C82U A111C C169G, the reverse-splicing fitness was 0.00866.

Consider A111G A120U A145G C150A C169U, for which the reverse-splicing fitness is 0.0188.

C82A A111C A120C A145U U176C: the reverse-splicing fitness came out at 0.0164.

In the case of C82G A111U A120G C150A C169A U176A, the reverse-splicing fitness is 0.0207.

Consider C82U A111G A120C A145G C150A C169G U176G, for which the reverse-splicing fitness was found to be 0.00547.

In the case of C82U A120C A145C C150G U176G, the reverse-splicing fitness turned out to be 0.00307.

Turning to A111U A120C A145C C150G U176A, the reverse-splicing fitness was 0.0176.

For A111U A120C A145C C150G U176G, the reverse-splicing fitness was determined as 0.00429.

C82U A111U A120G A145U C150A C169A U176G: the reverse-splicing fitness stood at 0.00508.

Take C82G A111C A120C C169U: the reverse-splicing fitness amounted to 0.0148.

For C82A A111C A120G A145U C150A C169A U176G, the reverse-splicing fitness came to 0.00621.

Turning to A111C A120G A145G C150A U176C, the reverse-splicing fitness is 0.0252.

As to A111C A120C A145C C150G C169U U176A, the reverse-splicing fitness is 0.00995.

As to C82G A111C A120G A145G C150A C169G U176G, the reverse-splicing fitness was 0.0058.

Turning to C82A A111U A120C A145G C169G U176C, the reverse-splicing fitness came to 0.0355.

With C82U A111U A120C C169U, the reverse-splicing fitness came to 0.0117.

For C82G A111G A120G A145C C150U C169G, the reverse-splicing fitness was determined as 0.0111.

For the variant A111C A120C A145G C150U C169A U176A, the reverse-splicing fitness worked out at 0.014.

Consider C82G A145C C150A C169G U176G, for which the reverse-splicing fitness is 0.00624.

Turning to C82U A111C A120C A145G C150A C169A U176C, the reverse-splicing fitness came to 0.0198.

Take C82U A111C C150G C169U U176A: the reverse-splicing fitness is 0.00814.

With C82A A111C A120G A145C C169G, the reverse-splicing fitness turned out to be 0.00901.

Consider C82A A111G A120U A145G C150G U176A, for which the reverse-splicing fitness amounted to 0.00592.

For the variant C82U A111C A145G C150G C169G U176C, the reverse-splicing fitness is 0.0117.

Consider A120U A145G C150U U176C, for which the reverse-splicing fitness is 0.532.
